“And” between values parts separate entries of the source, which are not always exact repeats. Equal values may be shown once. Read-outs that look alike come from different tables or passages of the source.
T1: human Nectin-4 extracellular antigen hNectin-4-His (human, UniProt Q96NY8 32-349)
T1 construct: C-terminal 8xHis tag included
T1 sequence: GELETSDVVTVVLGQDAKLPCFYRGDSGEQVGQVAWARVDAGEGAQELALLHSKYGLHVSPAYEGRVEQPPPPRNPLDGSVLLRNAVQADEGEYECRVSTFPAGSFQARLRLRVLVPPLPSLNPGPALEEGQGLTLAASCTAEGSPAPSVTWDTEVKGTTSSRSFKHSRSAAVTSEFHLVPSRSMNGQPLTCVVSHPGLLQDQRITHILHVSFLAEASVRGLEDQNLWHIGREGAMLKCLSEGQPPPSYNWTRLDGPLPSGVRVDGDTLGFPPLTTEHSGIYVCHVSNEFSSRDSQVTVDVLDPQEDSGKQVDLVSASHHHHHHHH

T2: human Nectin-4, full length on cells (human, UniProt Q96NY8 32-510)
T2 construct: whole, on cells; T-47D cells positive for Nectin-4 expression; also called Nectin-4 on T-47D cells; CHO-Nectin-4
T2 sequence (looked up): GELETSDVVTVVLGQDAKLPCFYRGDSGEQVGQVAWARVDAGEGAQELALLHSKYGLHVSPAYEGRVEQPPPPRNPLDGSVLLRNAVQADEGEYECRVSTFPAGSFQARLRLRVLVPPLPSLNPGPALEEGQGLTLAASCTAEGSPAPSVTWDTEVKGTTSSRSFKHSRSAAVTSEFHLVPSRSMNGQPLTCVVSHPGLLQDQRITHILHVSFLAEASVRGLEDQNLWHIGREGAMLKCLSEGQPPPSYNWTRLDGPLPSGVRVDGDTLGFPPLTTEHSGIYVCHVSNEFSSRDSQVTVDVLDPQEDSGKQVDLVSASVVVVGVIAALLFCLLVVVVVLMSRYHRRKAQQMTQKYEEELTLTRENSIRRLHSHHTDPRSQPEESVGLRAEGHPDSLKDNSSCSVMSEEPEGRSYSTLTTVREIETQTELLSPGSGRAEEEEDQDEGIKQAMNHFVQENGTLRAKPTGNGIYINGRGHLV

T3: mouse mNectin-4 protein (ACRO, NE4-M52H3) (mouse, UniProt Q8R007 31-347)
T3 construct: bought; construct not described; also called mouse Nectin-4
T3 sequence (looked up): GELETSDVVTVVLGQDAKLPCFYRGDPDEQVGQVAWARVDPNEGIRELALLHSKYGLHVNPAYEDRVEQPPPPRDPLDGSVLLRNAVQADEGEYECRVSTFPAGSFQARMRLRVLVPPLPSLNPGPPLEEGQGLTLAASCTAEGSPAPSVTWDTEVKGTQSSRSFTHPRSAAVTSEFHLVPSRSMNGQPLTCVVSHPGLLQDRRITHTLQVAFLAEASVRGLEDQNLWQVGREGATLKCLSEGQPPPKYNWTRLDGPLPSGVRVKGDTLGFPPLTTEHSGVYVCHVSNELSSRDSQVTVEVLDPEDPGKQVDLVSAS

T4: monkey cNectin-4 protein (ACRO, NE4-C52H4) (cynomolgus monkey, UniProt A0A2K5WES1 32-349)
T4 construct: bought; construct not described; also called cynomolgus monkey Nectin-4
T4 sequence: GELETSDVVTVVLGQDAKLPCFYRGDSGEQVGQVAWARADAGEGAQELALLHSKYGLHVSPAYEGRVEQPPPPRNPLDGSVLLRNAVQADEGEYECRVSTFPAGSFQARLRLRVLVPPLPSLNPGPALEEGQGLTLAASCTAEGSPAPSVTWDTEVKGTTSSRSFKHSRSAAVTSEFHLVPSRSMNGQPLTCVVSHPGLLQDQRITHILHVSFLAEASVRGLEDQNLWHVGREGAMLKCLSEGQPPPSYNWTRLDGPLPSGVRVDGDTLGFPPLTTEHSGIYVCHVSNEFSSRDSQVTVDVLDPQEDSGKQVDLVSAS


Key:
[1] = biological target: T1, human Nectin-4 extracellular antigen …; experiment: SPR, antibody on Protein A chip, hNectin-4-His analyte, 1:1 fit
Excerpt: (§1) In this study, the affinity of the antibodies for the human Nectin-4 extracellular antigen was detected by surface plasmon resonance (SPR) technique (BIAcore: GE Healthcare, T200).

[2] = biological target: T1, human Nectin-4 extracellular antigen …; experiment: SPR, antibody on Protein A chip, 1:1 fit
Excerpt: as §1

[3] = biological target: T2, human Nectin-4, full length on cells; experiment: flow cytometry, T-47D cells, antibody bound on ice, 0 h at 37 C
Method: (§2) In this assay, the relative amount of antibodies remaining on the cell surface after co-incubation at 37° C. for a certain period of time was detected by FACS to reflect the endocytosis efficiency. The procedures are briefly described as follows: T-47D cells (human ductal breast cancer cells, derived from the Cell Bank of Chinese Academy of Sciences, Cat.No. TCHu 87); the antibodies of interest were adjusted to 10 µg/mL and co-incubated with the cells on ice for 1 h; the cells were washed 3 times with pre-cooled PBS, and then placed at 37° C. and incubated for 0 h, 2 h and 4 h; 0.2% N₃Na was added to stop the endocytosis reaction; the cells were washed with PBS thrice, followed by the addition of the PE-labeled anti-human Fc secondary antibody (Invitrogen 12-4998-82); the cells were incubated at 4° C. for 30 min; the red fluorescence signal was detected on a flow cytometer.

[4] = biological target: T2, human Nectin-4, full length on cells; experiment: as above; remark: listed apart in the source
Method: as §2

[5] = biological target: T1, human Nectin-4 extracellular antigen …; experiment: SPR (BIAcore T200): antibody captured on a Protein A chip, hNectin-4-His injected at 0-100 nM, 1:1 fit. The sheet prints no unit; M is taken from the column head of Table 12 for the same fits. Table 12 prints 6.03E-09 for ASG-22, so the sheet's number differs from the text.
Excerpt: as §1

[6] = biological target: T2, human Nectin-4, full length on cells; experiment: flow cytometry on T-47D cells
Method: In this study, the binding activity of different antibodies to T-47D cells positive for Nectin-4 expression was detected by FACS, and the EC₅₀ for the binding of antibodies to the cells was analyzed by a four-parameter method. The procedures are briefly described as follows: T-47D cells (the Cell Bank of Chinese Academy of Sciences, TCHu 87) were trypsinized; the antibodies were serially diluted and co-incubated with T-47D cells at 4° C. for 0.5-1 h, followed by the addition of the secondary PE-labeled anti-human Fc antibody (Invitrogen, 12-4998-82); the signal intensity of red fluorescence was detected on a flow cytometer, and curves were plotted using Graphpad Prism and the EC₅₀ was calculated.

[7] = biological target: T1, human Nectin-4 extracellular antigen …; experiment: ELISA, coated hNectin-4-His
Excerpt: (§3) The binding activity of the antibodies was detected by ELISA.

[8] = biological target: T1, human Nectin-4 extracellular antigen …; experiment: ELISA, coated hNectin-4-His; remark: listed apart in the source
Excerpt: as §3

[9] = biological target: T1, human Nectin-4 extracellular antigen …; experiment: ELISA, coated antigen
[10] = biological target: T3, mouse mNectin-4 protein (ACRO, …); experiment: ELISA, coated antigen
[11] = biological target: T4, monkey cNectin-4 protein (ACRO, …); experiment: ELISA, coated antigen
[12] = biological target: T1, human Nectin-4 extracellular antigen …; experiment: ELISA, coated hNectin-4-His; remark: listed apart in the source
Excerpt: as §3

[13] = biological target: T1, human Nectin-4 extracellular antigen …; experiment: ELISA, coated antigen; remark: listed apart in the source
Excerpt: as §3
In this assay, the binding of different antibodies to human Nectin-4 homologous proteins hNectin-1 (ACRO, PV1-H5223), hNectin-2 (ACRO, PV2-H52E2), hNectin-3 (ACRO, PV3-H52E4), and hNectin-4-His was detected by ELISA to determine the specificity of the antibodies. For the methodology and procedures, see Example 4. Antigens of interest ([…]) were immobilized; after blocking, serially diluted antibodies (2-fold serially diluted from […]) were added, and HRP-labeled anti-human-Kappa secondary antibody was added for chromogenic reaction.

Row | Binder | Kd [1] | koff [1] | kon [1] | Kd [2] | koff [2] | kon [2] | MFI (mean fluorescence intensity) 0 h [3] | MFI (mean fluorescence intensity) 0 h [4] | Kd [5] | EC50 [6] | EC50 [7] | EC50 [8] | EC50 [9] | EC50 [10] | EC50 [11] | EC50 [12] | EC50 [13]
1 | reference antibody ASG-22 (antibody, human IgG1, kappa, V domains shown) VH: EVQLVESGGGLVQPGGSLRLSCAASGFTFSSYNMNWVRQAPGKGLEWVSYISSSSSTIYYADSVKGRFTISRDNAKNSLSLQMNSLRDEDTAVYYCARAYYYGMDVWGQGTLVTVSS VL: DIQMTQSPSSVSASVGDRVTITCRASQGISGWLAWYQQKPGKAPKFLIYAASTLQSGVPSRFSGSGSGTDFTLTISSLQPEDFATYYCQQANSFPPTFGGGTKVEIKR | 6.03 nM | 0.00436 s⁻¹ | 723000 M⁻¹ s⁻¹ | 10.1 nM and 10.9 nM | 0.00581 s⁻¹ and 0.0059 s⁻¹ | 577000 M⁻¹ s⁻¹ and 540000 M⁻¹ s⁻¹ | 107000 MFI | 58600 MFI | 6.68 nM | 0.118 µg/mL and 0.788 nM | 0.042 µg/mL and 0.046 µg/mL | 0.019 µg/mL | 0.035 µg/mL | 1.23 µg/mL | 0.033 µg/mL | 0.042 µg/mL | 
2 | antibody 3A10 (antibody, human IgG1, kappa, V domains shown) VH: not shown VL: DIQMTQSPSSLSASVGDRVTITCRASQGISSYLAWYQQKPGKAPKLLIYAASSLQSGVPSRFSGSGSGTDFTLTISSLQPEDFATYYCQQHYTTPPTFGQGTKVEIKR | 2.1 nM | 0.000867 s⁻¹ | 413000 M⁻¹ s⁻¹ |  |  |  | 105000 MFI |  |  | 0.186 µg/mL and 1.24 nM |  |  | 0.037 µg/mL | 0.037 µg/mL | 0.042 µg/mL | 0.068 µg/mL | 0.062 µg/mL
